Laboratory results: article PMC5041982 (2016)
Where no end group is shown, it is not given here. [ ]: non-standard residue; d: D form. pY = N[C@@H](Cc1ccc(OP(=O)(O)O)cc1)C(=O)O

Target: T1, EGFR pY1068 phosphododecapeptide dodecapeptide surrounding Y1068 (Homo sapiens, UniProt P00533)
T1 chain: LPVPE[pY]INQSVP
Assay: microscale thermophoresis

B1: STAT3 127-722 (protein)
chain: GQANHPTAAVVTEKQQMLEQHLQDVRKRVQDLEQKMKVVENLQDDFDFNYKTLKSQGDMQDLNGNNQSVTRQKMQQLEQMLTALDQMRRSIVSELAGLLSAMEYVQKTLTDEELADWKRRQQIACIGGPPNICLDRLENWITSLAESQLQTRQQIKKLEELQQKVSYKGDPIVQHRPMLEERIVELFRNLMKSAFVVERQPCMPMHPDRPLVIKTGVQFTTKVRLLVKFPELNYQLKIKVCIDKDSGDVAALRGSRKFNILGTNTKVMNMEESNNGSLSAEFKHLTLREQRCGNGGRANCDASLIVTEELHLITFETEVYHQGLKIDLETHSLPVVVISNICQMPNAWASILWYNMLTNNPKNVNFFTKPPIGTWDQVAEVLSWQFSSTTKRGLSIEQLTTLAEKLLGPGVNYSGCQITWAKFCKENMAGKGFSFWVWLDNIIDLVKKYILALWNEGYIMGFISKERERAILSTKPPGTFLLRFSESSKEGGVTFTWVEKDISGKTQIQSVEPYTKQQLNNMSFAEIIMGYKIMDATNILVSPLVYLYPDIPKEEAFGKYCRPESQEHPEADPGSAAPYLKTKFICVTPTTCSNTI
Kd: 1.1 nM
